Our source for the stoichiometry N values is article PMC5813103, “Hydroxynitrile lyases from cyanogenic millipedes: molecular cloning, heterologous expression, and whole-cell biocatalysis for the production of (R)-mandelonitrile” (Scientific Reports, 2018).

The test deals with Hydroxynitrile lyase from Nedyopus tambanus tambanus (NttHNL) (Nedyopus tambanus tambanus). Put plainly: SEC; gel filtration of the purified native enzyme; Superdex 200 10/300 equilibrated with PBS; native 52400 Da against 28800 Da on SDS-PAGE. (In general: In gel filtration, larger molecules generally elute earlier.)

“Hydroxynitrile lyase from Nedyopus tambanus tambanus (NttHNL) (enzyme)”: the stoichiometry N (commonly a count of units in the complex or per binding partner) is 2.
